The source of these data is US9540428B2, “Extracellular matrix heparin-binding domains” (EPFL-TTO, priority 2012, dated 2017).

For one assay, the target named is PDGF-AA (Homo sapiens, UniProt P04085). The experiment in a line: ELISA binding to coated PDGF-AA. Conditions: 50 nM cytokine coated. As to the method: (§1) ELISA plates were coated with cytokines or BSA and further incubated with TNC III1-5 to analyze binding of TNC III1-5 to a wide variety of cytokines. […] Results are depicted in FIG. 3. Method: 50 nM of cytokine was coated for (1 hr, 37° C.). After blocking with 2% BSA (1 hr, RT). 100 nM TNC III1-5 was applied in PBST (0.05% tween, 0.1% bovine serum albumin (BSA)) (1 hr, RT). TNC III1-5 was detected with horseradish peroxidase (HRP)-anti-HIS in PBST (1 hr, RT) and developed with 3,3′,5,5′-tetramethylbenzidine (TMB), a soluble colorimetric HRP […]. Addition of sulfuric acid stop solution changes the color to yellow, enabling accurate measurement of the intensity at 450 nm using a spectrophotometer or plate reader. […] Heparin (4 μM) was added to TNC III1-5 to test the effect of blocking the heparin binding site of TNC III1-5, which has been defined as domain TNC III5 (Weber, Zimmermann, et al., 1995).
In general terms: An ELISA detects its analyte on a solid surface through an enzyme-linked reagent.

In the next assay the target is T1, FGF-18 (Homo sapiens, UniProt O76093).
T1 sequence (O76093 28-207): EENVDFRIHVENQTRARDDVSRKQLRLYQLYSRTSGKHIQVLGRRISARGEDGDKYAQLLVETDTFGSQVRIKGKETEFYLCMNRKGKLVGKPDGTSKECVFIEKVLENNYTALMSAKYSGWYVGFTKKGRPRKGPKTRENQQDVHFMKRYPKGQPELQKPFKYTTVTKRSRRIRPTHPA
In words: ELISA binding to coated FGF-18. Conditions: 50 nM cytokine coated. As to the method:
as §1

The target in the next assay is T2, factor XIIIa (Homo sapiens, UniProt P00488).
T2 sequence (P00488 39-732 limits assumed): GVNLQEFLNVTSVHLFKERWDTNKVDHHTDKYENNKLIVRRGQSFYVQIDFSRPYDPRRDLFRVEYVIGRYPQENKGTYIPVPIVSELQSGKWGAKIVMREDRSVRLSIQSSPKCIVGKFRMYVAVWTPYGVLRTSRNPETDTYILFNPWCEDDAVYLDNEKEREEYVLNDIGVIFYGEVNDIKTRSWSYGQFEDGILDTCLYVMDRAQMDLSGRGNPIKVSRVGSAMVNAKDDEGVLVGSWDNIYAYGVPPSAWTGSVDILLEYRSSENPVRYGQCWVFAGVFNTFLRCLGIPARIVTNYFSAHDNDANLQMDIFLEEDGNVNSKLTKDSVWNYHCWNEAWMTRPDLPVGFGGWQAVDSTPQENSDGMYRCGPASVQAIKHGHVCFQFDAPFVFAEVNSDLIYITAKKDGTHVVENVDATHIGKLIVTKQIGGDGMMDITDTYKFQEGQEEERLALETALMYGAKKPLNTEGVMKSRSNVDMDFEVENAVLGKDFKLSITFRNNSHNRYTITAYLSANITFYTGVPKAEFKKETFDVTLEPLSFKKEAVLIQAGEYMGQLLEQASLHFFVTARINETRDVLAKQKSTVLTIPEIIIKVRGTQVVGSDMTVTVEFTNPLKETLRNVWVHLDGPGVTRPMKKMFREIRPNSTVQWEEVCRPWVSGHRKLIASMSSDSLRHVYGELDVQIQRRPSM
In words: Transglutaminase substrate activity (TAMRA, fibrinogen, PEG-lysine with factor XIIIa). Particulars: with and without factor XIIIa. The class given is biochemical. As to the method: The activity of the transglutaminase substrate (TG: NQEQVSPL) (SEQ ID NO:10) of the engineered protein TG-TNC III1-5 was confirmed. FIG. 12 depicts results. Methods: A) The TG activity of TG-TNC III1-5 was tested by reaction with a fluorescent TAMRA molecule, containing lysines, with and without the presence of factor XIIIa, the TAMRA molecule, or TG-TNC III1-5. […] B) The TG activity of TG-TNC III1-5 was tested by reaction with fibrinogen, with and without the presence of factor XIIIa, fibrinogen, or TG-TNC III1-5. Fibrinogen or no protein was coated on an ELISA plate (1 hr, 37° C.), blocked with 2% BSA (1 hr, RT), reacted with or without TG-TNC III1-5 or factor XIIIa C) The TG activity of TG-TNC III1-5 was tested by reaction with PEG-lysines. A robotic spotter was used to bind TG-TNC III1-5 inside 450 μm spots (Gobaa, Hoehnel, et al., 2011), and an immuno-fluorescent stain was used to visualize the location and distribution of TG-TNC III1-5 onto the PEG. D) TG-TNC III1-5 and TG-FN III9*-10,TNC III1-5 (5 μM) were incorporated into a 2% TG-PEG gel. After 2 washed with PBS, 98% and 96% respectively of the fragments was bound into gels, which were sequentially stained with HRP-conjugated anti-HIS, and developed with TMB to read an absorbance at 450 nm.

The next assay concerns the target PDGF-DD (Homo sapiens, UniProt Q9GZP0). In words: ELISA binding to coated PDGF-DD. Conditions: 50 nM cytokine coated. As to the method:
as §1

The target in another assay is T3, BMP-2/7 (Homo sapiens, UniProt P12643+P18075).
T3 sequence (P12643 283-396): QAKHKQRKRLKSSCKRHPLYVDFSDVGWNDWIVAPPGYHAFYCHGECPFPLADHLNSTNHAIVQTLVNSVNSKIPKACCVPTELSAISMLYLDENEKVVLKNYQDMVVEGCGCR
T3 sequence (P18075 293-431): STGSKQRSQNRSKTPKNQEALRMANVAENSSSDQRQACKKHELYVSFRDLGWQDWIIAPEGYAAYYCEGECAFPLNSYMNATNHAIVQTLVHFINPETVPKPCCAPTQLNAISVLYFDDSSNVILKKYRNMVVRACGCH
In words: ELISA binding to coated BMP-2/7. Conditions: 50 nM cytokine coated. As to the method:
as §1
(§2) ELISA plates were coated with cytokines or BSA and further incubated with Fg β15-66 to analyze binding of […] to a wide variety of cytokines. […] Results are depicted in FIG. 4. Method: The methods were analogous to those used in Example 3.

A further assay has as its target T4, FGF-5 (Homo sapiens, UniProt P12034).
T4 sequence (P12034 21-268): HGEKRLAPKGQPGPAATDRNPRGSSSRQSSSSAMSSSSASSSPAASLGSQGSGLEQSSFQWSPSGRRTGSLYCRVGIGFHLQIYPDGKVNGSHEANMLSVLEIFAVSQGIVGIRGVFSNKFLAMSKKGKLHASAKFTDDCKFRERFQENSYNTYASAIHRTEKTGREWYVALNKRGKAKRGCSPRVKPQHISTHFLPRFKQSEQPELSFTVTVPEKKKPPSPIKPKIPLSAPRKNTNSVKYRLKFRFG
The experiment in a line: ELISA binding to coated FGF-5. Particulars: 50 nM cytokine coated. As for the experimental part: as §1, §2

Sequence of PDGF-DD (Q9GZP0 250-370 limits assumed): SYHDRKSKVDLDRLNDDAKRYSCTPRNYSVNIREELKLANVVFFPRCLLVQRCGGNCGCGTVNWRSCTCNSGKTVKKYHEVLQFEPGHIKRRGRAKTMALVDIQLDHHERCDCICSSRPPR

B1: TNC III1-5: recombinant tenascin C fibronectin type III repeats 1-5 (E622 to A1074) with transglutaminase substrate NQEQVSPL and 6×His tag, SEQ ID NO:1 (protein)
chain: METDTLLLWVLLLWVPGSTGDAAQPAIEGRNQEQVSPLGGSEVSPPKDLVVTEVTEETVNLAWDNEMRVTEYLVVYTPTHEGGLEMQFRVPGDQTSTIIQELEPGVEYFIRVFAILENKKSIPVSARVATYLPAPEGLKFKSIKETSVEVEWDPLDIAFETWEIIFRNMNKEDEGEITKSLRRPETSYRQTGLAPGQEYEISLHIVKNNTRGPGLKRVTTTRLDAPSQIEVKDVTDTTALITWFKPLAEIDGIELTYGIKDVPGDRTTIDLTEDENQYSIGNLKPDTEYEVSLISRRGDMSSNPAKETFTTGLDAPRNLRRVSQTDNSITLEWRNGKAAIDSYRIKYAPISGGDHAEVDVPKSQQATTKTTLTGLRPGTEYGIGVSAVKEDKESNPATINAATELDTPKDLQVSETAETSLTLLWKTPLAKFDRYRLNYSLPTGQWVGVQLPRNTTSYVLRGLEPGQEYNVLLTAEKGRHKSKPARVKASTEQAGGGSHHHHHH
modifications: Tenascin III signal sequence with polyhistidine tag
With B1, in the assay with PDGF-AA, the “binding to PDGF-AA (ELISA, signal above BSA background)” value is listed as “positive binding”. The “binding to FGF-18 (ELISA, signal above BSA background)” value with FGF-18 was “positive binding”. Also, in the assay with factor XIIIa, the “activity of the transglutaminase substrate (TG: NQEQVSPL)” value is reported as “confirmed”. Moreover, the “binding to PDGF-DD (ELISA, signal above BSA background)” value with PDGF-DD is “positive binding”.

B2: Fg β15-66: heparin-binding domain of human fibrinogen β chain aa15-66 (SEQ ID NO:8); construct with TG substrate and His tag, SEQ ID NO:2 (protein)
chain: GSNQEQVSPLGHRPLDKKREEAPSLRPAPPPISGGGYRARPAKAAATQKKVERKAPDAGGCGHHHHHH
modifications: GS linker, transglutaminase substrate, the Fg beta15-66, with a Histidine tag
For the molecule B2, the “binding to BMP-2/7 (ELISA, signal above BSA background)” value with BMP-2/7 was “positive binding”. Further, the “binding to FGF-5 (ELISA, signal above BSA background)” value with FGF-5 is “positive binding”.
